We go through three molecules from US7842293B2, “Compositions and methods using anti-CS1 antibodies to treat multiple myeloma” (Facet Biotech Corporation, priority 2006, dated 2010).

The test system of assay [1] is CS1. The assay can be described thus: CS1 protein expression on L363 multiple myeloma cell line (flow cytometry). The format is cell-based. How it is done: The effect of HuLuc63 and Thal treatment on the expression of CS1 in MM cell lines and mouse xenograft tumors was examined by flow cytometry and immunohistochemistry respectively, as described above.
(§1) CS1 protein expression was examined on the L363 multiple myeloma cell line. […] The combination of HuLuc63 with Thal was tested for anti-myeloma activity in vivo. L363 tumor-bearing mice were treated with HuLuc63, or isotype control antibody twice weekly for three weeks at 10 mg/kg. Thal was given 5 days a week at 50 mg/kg for a maximum of 15 doses to mice receiving either isotype control antibody or HuLuc63.

In assay [2] the test system is L363 cells. The assay is described as follows: In vivo mouse multiple myeloma xenograft model, L363 tumors. The note with it: L363 tumor-bearing mice, HuLuc63 10 mg/kg twice weekly for three weeks. How it is done:
(§2) Six- to eight-week old female IcrTac:ICR-Prkdcscid mice obtained from Taconic Farms (Germantown, N.Y.) were inoculated with 1×10^7 OPM2 or L363 cells (German Collection of Microorganisms and Cell Cultures, Braunschweig, Germany) into the lower right flank. Caliper measurements were performed twice weekly to calculate tumor volume using the following formula: L×W×H/2, where L (length) is the longest side of the tumor in the plane of the animal's back, W (width) is the longest measurement perpendicular to the length and in the same plane and H (height) is taken at the highest point perpendicular to the back of the animal. When tumors reached an average size of about 100 mm^3, animals were randomized into 3 groups of 8-10 mice each and were treated with 1 or 10 mg/kg of HuLuc63 or isotype control antibody administered intraperitoneally twice a week for a maximum of 6 doses.
(§3) Tumor growth was monitored for a period of 1-2 months. Animal work was carried out under NIH guidelines (“Guide for the Care and Use of Laboratory Animals”) using protocols approved by IACUC at PDL BioPharma.
as §1
L363 tumor-bearing mice were treated with HuLuc63, or isotype control antibody twice weekly for three weeks at 10 mg/kg. Thal was given 5 days a week at 50 mg/kg for a maximum of 15 doses and Dex was given twice a week at 10 mg/kg for a maximum of 6 doses to mice receiving either isotype control antibody or HuLuc63.
To determine if an anti-angiogenic drug can enhance the antitumor effects of HuLuc63, a combination of HuLuc63 with Bevacizumab was tested for anti-myeloma activity in vivo, as described above. L363 tumor-bearing mice were treated with HuLuc63, or isotype control antibody twice weekly for three weeks at 10 mg/kg. Bevacizumab was given twice a week at 0.5 mg/kg for a maximum of 6 doses to mice receiving either isotype control antibody or HuLuc63.

Assay [3] has as its system myeloma tumor. The following applies: myeloma mouse tumor model; from U.S. Patent Publication No. 2005/0025763; cited from earlier work.
Assay [4] relates to OPM2 cells. The assay is described as follows: In vivo mouse multiple myeloma xenograft model, OPM2 tumors. The following applies: OPM2 tumor-bearing mice; HuLuc63 1 mg/kg (sub-optimal) twice weekly for three weeks; Dex 10 mg/kg twice a week; i.p.; FIG. 1. How it is done:
as §2
Dex was administered intraperitoneally at a dose of 10 mg/kg twice a week for a maximum of 6 doses.
as §3
CS1 protein expression was examined on the OPM2 multiple myeloma cell line. […] The combination of HuLuc63 with Dex was tested for anti-myeloma activity in vivo. […]

The subject of assay [5] is myeloma cells. The following applies: from U.S. Patent Publication No. 2005/0025763; cited from earlier work.
The subject of assay [6] is CS1. The assay can be described thus: CS1 protein expression on OPM2 multiple myeloma cell line (flow cytometry). It is filed as cell-based. How it is done: The effect of HuLuc63 and Dex treatment on the expression of CS1 in MM cell lines and mouse xenograft tumors was examined by flow cytometry and immunohistochemistry respectively.
CS1 protein expression was examined on the OPM2 multiple myeloma cell line. […] The combination of HuLuc63 with Dex was tested for anti-myeloma activity in vivo. OPM2 tumor-bearing mice were treated with sub-optimal doses of HuLuc63 (1 mg/kg), or isotype control antibody twice weekly for three weeks. Dex was given twice a week at 10 mg/kg to mice receiving either isotype control antibody or HuLuc63.

[7] abbreviates: Thal 50 mg/kg 5 days a week, max 15 doses, FIG. 2.
The mark [8] stands for this setting: Bevacizumab 0.5 mg/kg twice a week, max 6 doses, FIG. 4.

Turning to `O=C1CCC(N2C(=O)c3ccccc3C2=O)C(=O)N1` (centres unmarked) [Thal, Thalidomide, reference compound], the “change in CS1 expression pre- or post-treatment” value in assay [1] was “No significant change in CS1 expression”. Moreover, the anti-tumor activity result in assay [2] (setting [7]) is on record as “Significant anti-tumor activity”.

On to “Bevacizumab: monoclonal antibody that targets the endothelial growth factor VEGF [reference compound]”, for which, in assay [2] (setting [8]), the anti-tumor activity entry is listed as “did not exhibit significant anti-tumor activity”.

B1: HuLuc63: humanized recombinant monoclonal IgG1 antibody directed to human CS1; heavy chain variable region SEQ ID NO: 5, light chain variable region SEQ ID NO: 6 (antibody, listed as Homo sapiens, V domains shown)
VH: EVQLVESGGGLVQPGGSLRLSCAASGFDFSRYWMSWVRQAPGKGLEWIGEINPDSSTINYAPSLKDKFIISRDNAKNSLYLQMNSLRAEDTAVYYCARPDGNYWYFDVWGQGTLVTVSS
VL: DIQMTQSPSSLSASVGDRVTITCKASQDVGIAVAWYQQKPGKVPKLLIYWASTRHTGVPDRFSGSGSGTDFTLTISSLQPEDVATYYCQQYSSYPYTFGQGTKVEIK
For the molecule B1, the “change in CS1 expression pre- or post-treatment” value in assay [1] and in assay [6] was “No significant change in CS1 expression” each time. In addition, the “reduction of tumor mass” value in assay [3] was “more than 50%”. Further, the anti-tumor activity entry in assay [4] was “significant anti-tumor activity”; in assay [2] (setting [8]) it was “Significant anti-tumor activity”; in assay [2] (setting [7]), “Significant anti-tumor activity”; in assay [2] (Thal 50 mg/kg 5 days a week, Dex 10 mg/kg twice a week, FIG. 3) it was “significant anti-tumor activity”. Further, the “lysis of myeloma cells via ADCC” value in assay [5] is on record as “effectively mediates lysis of myeloma cells”.
